Experimental data from article PMC3507880, “Rationale-Based Engineering of a Potent Long-Acting FGF21 Analog for the Treatment of Type 2 Diabetes” (PLoS ONE, 2012).

T1: human βKlotho (human, UniProt Q86Z14 1-996)
T1 sequence (looked up): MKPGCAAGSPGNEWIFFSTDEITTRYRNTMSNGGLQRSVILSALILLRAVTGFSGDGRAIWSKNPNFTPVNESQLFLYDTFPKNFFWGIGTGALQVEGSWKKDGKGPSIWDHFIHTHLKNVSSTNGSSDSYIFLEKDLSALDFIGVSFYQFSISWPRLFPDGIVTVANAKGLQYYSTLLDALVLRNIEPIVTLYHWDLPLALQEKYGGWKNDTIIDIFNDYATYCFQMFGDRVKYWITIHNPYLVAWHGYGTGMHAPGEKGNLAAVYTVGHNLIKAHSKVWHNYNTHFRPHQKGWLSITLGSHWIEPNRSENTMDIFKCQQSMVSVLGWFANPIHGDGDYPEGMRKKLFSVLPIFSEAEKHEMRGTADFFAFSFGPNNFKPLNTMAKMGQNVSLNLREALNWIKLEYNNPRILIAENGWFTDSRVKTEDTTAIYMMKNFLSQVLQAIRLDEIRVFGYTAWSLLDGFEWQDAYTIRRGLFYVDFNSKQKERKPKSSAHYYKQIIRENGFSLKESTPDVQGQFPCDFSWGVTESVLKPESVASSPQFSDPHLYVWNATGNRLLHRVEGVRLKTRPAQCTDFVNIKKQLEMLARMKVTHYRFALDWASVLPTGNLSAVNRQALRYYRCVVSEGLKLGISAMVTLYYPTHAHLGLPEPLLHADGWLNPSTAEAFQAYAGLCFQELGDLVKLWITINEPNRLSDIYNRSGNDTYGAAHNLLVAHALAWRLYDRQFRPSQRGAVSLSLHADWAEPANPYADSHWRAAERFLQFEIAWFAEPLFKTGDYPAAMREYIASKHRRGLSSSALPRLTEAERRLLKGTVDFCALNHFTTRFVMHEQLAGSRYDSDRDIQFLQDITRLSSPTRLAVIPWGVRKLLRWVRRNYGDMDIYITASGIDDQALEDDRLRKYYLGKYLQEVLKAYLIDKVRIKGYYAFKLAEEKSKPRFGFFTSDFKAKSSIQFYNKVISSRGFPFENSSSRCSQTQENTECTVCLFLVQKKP

B1: Fc-FGF21(RG) (protein)
chain: HPIPDSSPLLQFGGQVRQRYLYTDDAQQTEAHLEIREDGTVGGAADQSPESLLQLKALKPGVIQILGVKTSRFLCQRPDGALYGSLHFDPEACSFRERLLEDGYNVYQSEAHGLPLHLPGNKSPHRDPAPRGPARFLPLPGLPPALPEPPGILAPQPPDVGSSDPLSMVGGSQGRSPSYAS
B2: wild type human mature FGF21 (protein)
chain: HPIPDSSPLLQFGGQVRQRYLYTDDAQQTEAHLEIREDGTVGGAADQSPESLLQLKALKPGVIQILGVKTSRFLCQRPDGALYGSLHFDPEACSFRELLLEDGYNVYQSEAHGLPLHLPGNKSPHRDPAPRGPARFLPLPGLPPALPEPPGILAPQPPDVGSSDPLSMVGPSQGRSPSYAS
B3: Fc-FGF21 (N-terminal Fc fusion of human mature FGF21, wild type) (Fc fusion, UniProt Q9NSA1 29-209, looked up)
chain: HPIPDSSPLLQFGGQVRQRYLYTDDAQQTEAHLEIREDGTVGGAADQSPESLLQLKALKPGVIQILGVKTSRFLCQRPDGALYGSLHFDPEACSFRELLLEDGYNVYQSEAHGLPLHLPGNKSPHRDPAPRGPARFLPLPGLPPALPEPPGILAPQPPDVGSSDPLSMVGPSQGRSPSYAS

Experiments:
Q9NSA1 = experiment: SEC; SEC-HPLC (Bio-Sil SEC-250, 2x PBS with 2% isopropyl alcohol); 65 mg/ml in 10 mM potassium phosphate, 5% sorbitol, pH 8.0; stored at 25°C or 4°C for 2 to 9 days; high molecular weight species as % of total
human βKlotho = biological target: T1, human βKlotho; experiment: cell-based or functional assay

Binder	aggregates, percent of total, over 9 days (Q9NSA1)	high molecular aggregates, percent of total, day 5 (Q9NSA1)	Elk1-dependent luciferase reporter in 293T cells stably overexpressing human βKlotho or CHO cells overexpressing human βKlotho and human FGFR1c; maximal activity relative to native FGF21 (human βKlotho) [%]
B1	the amount of aggregates remained below 3% at all tested conditions	–	–
B2	–	the high molecular aggregates accounted for 50% and 25% of total native FGF21 and Fc-FGF21, respectively	–
B3	–	the high molecular aggregates accounted for 50% and 25% of total native FGF21 and Fc-FGF21, respectively	~80
